Data published in article PMC4192059 (Molecular microbiology, 2014).

Biological target: T1, PPE41 (M. tuberculosis), chain of the crystallized complex (M. tuberculosis, UniProt Q79FE1 1-194)
T1 sequence: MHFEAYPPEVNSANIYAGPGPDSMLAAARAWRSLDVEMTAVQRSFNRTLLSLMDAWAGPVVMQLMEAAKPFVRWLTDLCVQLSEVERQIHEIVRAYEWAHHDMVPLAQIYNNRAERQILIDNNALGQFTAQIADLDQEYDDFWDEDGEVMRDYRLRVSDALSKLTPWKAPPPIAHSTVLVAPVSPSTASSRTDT
Assay: crystal structure

B1: PE25 (M. tuberculosis), chain of the crystallized complex (natural protein)
chain: MSFVITNPEALTVAATEVRRIRDRAIQSDAQVAPMTTAVRPPAADLVSEKAATFLVEYARKYRQTIAAAAVVLEEFAHALTTGADKYATAEADNIKTFS
  binding result: binds
